Measurements: patent US20240294645A1 (HANGZHOU SUMGEN BIOTECH, published 2024)

B1: bispecific fusion protein 12VF2 (bispecific antibody, human IgG1, kappa)
light: EIVLTQSPGTLSLSPGERATLSCRASQRVSSSYLAWYQQKPGQAPRLLIYDASSRATGIPDRFSGSGSGTDFTLTISRLEPEDFAVYYCQQYGSLPWTFGQGTKVEIKRTVAAPSVFIFPPSDEQLKSGTASVVCLLNNFYPREAKVQWKVDNALQSGNSQESVTEQDSKDSTYSLSSTLTLSKADYEKHKVYACEVTHQGLSSPVTKSFNRGEC
heavy: EVQLVESGGGLVQPGGSLRLSCAASGFTFSRYWMSWVRQAPGKGLEWVANIKQDGSEKYYVDSVKGRFTISRDNAKNSLYLQMNSLRAEDTAVYYCAREGGWFGELAFDYWGQGTLVTVSSASTKGPSVFPLAPSSKSTSGGTAALGCLVKDYFPEPVTVSWNSGALTSGVHTFPAVLQSSGLYSLSSVVTVPSSSLGTQTYICNVNHKPSNTKVDKRVEPKSCDKTHTCPPCPAPEFEGGPSVFLFPPKPKDTLMISRTPEVTCVVVDVSHEDPEVKFNWYVDGVEVHNAKTKPREEQYNSTYRVVSVLTVLHQDWLNGKEYKCKVSNKALPASIEKTISKAKGQPREPQVYTLPPSREEMTKNQVSLTCLVKGFYPSDIAVEWESNGQPENNYKTTPPVLDSDGSFFLYSKLTVDKSRWQQGNVFSCSVMHEALHNHYTQKSLSLSPGKGGGGSGGGGSSDTGRPFVEMYSEIPEIIHMTEGRELVIPCRVTSPNITVTLKKFPLDTLIPDGKRIIWDSRKGFIISNATYKEIGLLTCEATVNGHLYKTNYLTHRQTNTIIDVVLSPSHGIELSVGEKLVLNCTARTELNVGIDFNWEYPSSKHQHKKLVNRDLKTQSGSEMKKFLSTLTIDGVTRSDQGLYTCAASSGLMTKKNSTFVRVHE
B2: SG1202 (printed 'a PD-L2 antibody 1'; used as PD-L1 antibody, apparently PD-L1 antibody 2) (antibody, V domains shown)
VH: EVQLVESGGGLVQPGGSLRLSCAASGFTFSRYWMSWVRQAPGKGLEWVANIKQDGSEKYYVDSVKGRFTISRDNAKNSLYLQMNSLRAEDTAVYYCAREGGWFGELAFDYWGQGTLVTVSS
VL: EIVLTQSPGTLSLSPGERATLSCRASQRVSSSYLAWYQQKPGQAPRLLIYDASSRATGIPDRFSGSGSGTDFTLTISRLEPEDFAVYYCQQYGSLPWTFGQGTKVEIK
notes: Only variable regions are tied to SG1202; also called PD-L1 antibody SG1202; antibody SG1202

Columns and labels:
[1] = molecular target: T1, VEGF 121 Protein, Human, Recombinant (Sino Biological) (human, UniProt P15692-9 27-147); assay: competition ELISA, VEGF121 coated, competitor biotin-labeled VEGFR2
T1 sequence (looked up): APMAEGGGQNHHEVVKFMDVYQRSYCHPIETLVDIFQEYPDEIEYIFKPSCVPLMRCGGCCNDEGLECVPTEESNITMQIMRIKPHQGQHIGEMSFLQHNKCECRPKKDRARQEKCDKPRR

[2] = molecular target: VEGF165 Protein, Human, Cynomolgus, Recombinant, HPLC-verified (Sino Biological) (Human, Cynomolgus, UniProt P15692-4 27-191); assay: competition ELISA, VEGF165 coated, competitor biotin-labeled VEGFR2
Method: (§1) 100 μL of 2N H₂SO4 stop solution was added to each well to terminate the substrate reaction.

[3] = molecular target: T2, Biotinylated Human VEGF165 Protein, His, Avitag (Acro Biosystems) (human, UniProt P15692-4 27-191, biotin-labeled (site not stated; Avitag)); assay: competition ELISA, VEGFR1 coated (competitor), biotin-labeled VEGF165 detected
T2 construct: also called biotin-labeled VEGF165; not shown: His tag and Avitag
Method: as §1

[4] = molecular target: T2, Biotinylated Human VEGF165 Protein, …; assay: bridging ELISA: PD-L1 coated, sample, then biotin-labeled VEGF165

IC50 [1] [nM]	IC50 [2] [nM]	IC50 [3] [nM]	binding result [4]	Binder
3.29	3.5	5.05		B1
			no binding	B2
